Reference: patent US20250250355A1 (BIOSION, published 2025)
Read-outs that look alike come from different tables or passages of the source.

How the values were obtained:
[1] = biological target: T1, full length human SIRPα on cell membranes (HEK293-SIRPα cells; 293F-SIRPα cells) (human, UniProt P78324 31-504); test: cell based binding FACS on HEK293-SIRPα cells, MFI
T1 construct: whole, on cells; also called cell surface human SIRPα; cell surface SIRPα

[2] = biological target: T2, full length human SIRPβ on cell membranes (HEK293-SIRPβ cells; 293F cells expressing human SIRPβ) (human, UniProt O00241 30-398); test: cell based binding FACS on HEK293-SIRPβ cells, MFI
T2 construct: whole, on cells; also called cell surface human SIRPβ
T2 sequence (O00241 30-398): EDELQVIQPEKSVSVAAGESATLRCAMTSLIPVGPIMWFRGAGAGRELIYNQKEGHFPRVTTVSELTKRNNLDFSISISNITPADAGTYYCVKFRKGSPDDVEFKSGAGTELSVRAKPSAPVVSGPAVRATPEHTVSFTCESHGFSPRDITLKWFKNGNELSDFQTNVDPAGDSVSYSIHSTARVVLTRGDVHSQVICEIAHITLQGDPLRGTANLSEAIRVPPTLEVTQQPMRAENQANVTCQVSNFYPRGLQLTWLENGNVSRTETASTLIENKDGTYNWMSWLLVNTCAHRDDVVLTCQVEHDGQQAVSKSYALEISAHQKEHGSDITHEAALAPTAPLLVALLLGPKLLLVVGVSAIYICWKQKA

[3] = biological target: T3, human SIRPα-V8-his protein (human, UniProt P78324 31-370, limits assumed); test: indirect ELISA on coated human SIRPα-V8-his, OD(450-630); curve not visible in the scan
T3 sequence (P78324 other isoform, or with tags, fused parts or gaps limits assumed): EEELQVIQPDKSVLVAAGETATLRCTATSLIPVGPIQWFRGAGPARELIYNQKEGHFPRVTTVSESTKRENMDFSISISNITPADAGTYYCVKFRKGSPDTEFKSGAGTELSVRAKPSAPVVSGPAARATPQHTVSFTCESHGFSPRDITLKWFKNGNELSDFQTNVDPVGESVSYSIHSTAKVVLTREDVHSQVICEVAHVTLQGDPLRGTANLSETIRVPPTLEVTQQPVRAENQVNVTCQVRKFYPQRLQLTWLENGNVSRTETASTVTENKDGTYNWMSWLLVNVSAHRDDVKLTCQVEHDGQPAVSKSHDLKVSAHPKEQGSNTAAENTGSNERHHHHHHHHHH

[4] = biological target: T4, cynomolgus SIRPα-his protein (cynomolgus); test: indirect ELISA on coated cynomolgus SIRPα-his, OD(450-630); curve not visible in the scan
T4 construct: also called Cyno SIRPα-his; monkey SIRPα
T4 chain: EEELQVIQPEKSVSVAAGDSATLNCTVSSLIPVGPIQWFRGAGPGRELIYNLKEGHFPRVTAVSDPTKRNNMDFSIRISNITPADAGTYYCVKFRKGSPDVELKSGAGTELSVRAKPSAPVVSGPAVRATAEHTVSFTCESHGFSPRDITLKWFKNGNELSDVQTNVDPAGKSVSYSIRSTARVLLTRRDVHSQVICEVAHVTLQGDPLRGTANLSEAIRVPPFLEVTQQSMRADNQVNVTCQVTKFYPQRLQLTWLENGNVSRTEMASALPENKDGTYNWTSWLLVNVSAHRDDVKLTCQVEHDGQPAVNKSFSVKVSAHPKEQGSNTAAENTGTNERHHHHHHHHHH

[5] = biological target: T4, cynomolgus SIRPα-his protein; test: as above
[6] = biological target: human SIRPα-isoform 2-his protein (human); test: indirect ELISA on coated human SIRPα-isoform 2-his, OD(450-630); curve not visible in the scan
Chain of human SIRPα-isoform 2-his protein (human) (chain, as listed by the source limits assumed): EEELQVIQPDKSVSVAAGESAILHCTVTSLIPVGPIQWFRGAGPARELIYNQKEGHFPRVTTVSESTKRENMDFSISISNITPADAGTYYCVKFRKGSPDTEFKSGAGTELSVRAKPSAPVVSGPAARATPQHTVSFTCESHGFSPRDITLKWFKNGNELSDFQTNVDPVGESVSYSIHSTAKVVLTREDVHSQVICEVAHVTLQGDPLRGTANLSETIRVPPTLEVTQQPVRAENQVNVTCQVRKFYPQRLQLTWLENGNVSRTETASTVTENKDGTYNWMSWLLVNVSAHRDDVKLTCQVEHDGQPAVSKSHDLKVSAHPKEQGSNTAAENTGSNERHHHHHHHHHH

[7] = biological target: human SIRPα-isoform 2-his protein (human); test: as above; remark: listed apart in the source
[8] = biological target: T1, full length human SIRPα on cell …; test: cell based binding FACS on 293F cells expressing human SIRPα, MFI; curve not visible in the scan
[9] = biological target: T1, full length human SIRPα on cell …; test: as above; remark: listed apart in the source
[10] = biological target: T2, full length human SIRPβ on cell …; test: cell based binding FACS on 293F cells expressing human SIRPβ, MFI; curve not visible in the scan
[11] = biological target: T2, full length human SIRPβ on cell …; test: as above; remark: listed apart in the source
[12] = biological target: T1, full length human SIRPα on cell …; test: cell based blocking FACS on 293F-SIRPα cells; blocked ligand: biotin-labeled human CD47-Fc, MFI
human SIRPα-his protein [13] = biological target: T5, human SIRPα-his protein (human, UniProt P78324 31-370); test: SPR (Biacore T200); antibody captured on Protein A chip, human SIRPα-his flowed from 200 nM; 1:1 Langmuir fit
T5 sequence (P78324 other isoform, or with tags, fused parts or gaps limits assumed): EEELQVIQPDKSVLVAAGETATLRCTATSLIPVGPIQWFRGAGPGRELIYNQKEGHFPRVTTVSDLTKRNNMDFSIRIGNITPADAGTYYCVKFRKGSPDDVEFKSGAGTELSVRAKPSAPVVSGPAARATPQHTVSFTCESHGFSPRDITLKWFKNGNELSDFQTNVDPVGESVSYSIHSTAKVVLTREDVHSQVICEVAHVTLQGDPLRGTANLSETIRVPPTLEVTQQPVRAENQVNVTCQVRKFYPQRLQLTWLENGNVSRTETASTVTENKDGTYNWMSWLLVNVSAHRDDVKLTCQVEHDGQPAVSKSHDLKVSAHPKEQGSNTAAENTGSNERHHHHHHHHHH

human SIRPβ-his protein = human SIRPβ-his protein (human, UniProt O00241 30-371); test: SPR (Biacore T200); antibody captured on Protein A chip, human SIRPβ-his flowed from 200 nM; 1:1 Langmuir fit
Chain of human SIRPβ-his protein (O00241 other isoform, or with tags, fused parts or gaps limits assumed): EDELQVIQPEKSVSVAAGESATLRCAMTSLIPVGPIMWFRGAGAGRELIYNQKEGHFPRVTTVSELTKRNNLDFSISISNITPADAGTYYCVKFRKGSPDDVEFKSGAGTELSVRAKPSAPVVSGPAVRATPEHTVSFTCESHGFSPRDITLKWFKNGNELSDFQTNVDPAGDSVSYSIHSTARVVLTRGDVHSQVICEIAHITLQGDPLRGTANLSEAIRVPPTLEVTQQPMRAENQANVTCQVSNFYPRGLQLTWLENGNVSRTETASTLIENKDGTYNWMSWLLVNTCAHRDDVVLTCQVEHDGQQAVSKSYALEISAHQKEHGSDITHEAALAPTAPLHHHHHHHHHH

[14] = biological target: T3, human SIRPα-V8-his protein; test: indirect ELISA on coated human SIRPα-V8-his, OD(450-630); curve flat at the baseline (see non_binding)
[15] = biological target: human SIRPα-isoform 2-his protein (human); test: indirect ELISA on coated human SIRPα-isoform 2-his, OD(450-630); curve flat at the baseline (see non_binding)
[16] = biological target: T1, full length human SIRPα on cell …; test: cell based blocking FACS on 293F-SIRPα cells; blocked ligand: human CD47 protein (CD47-Fc), MFI; curve not visible in the scan
[17] = biological target: T1, full length human SIRPα on cell …; test: as above; remark: listed apart in the source
human SIRPα-his protein [18] = biological target: T5, human SIRPα-his protein; test: competitive ELISA on coated human SIRPα-his; blocked ligand: biotin-labeled human CD47-his, OD(450-630); curve not assignable in the scan
[19] = biological target: T6, recombinant human SIRPα-Fc protein (human, biotin-labeled (sites not given)); test: capture ELISA, antibody captured on anti-mouse IgG F(ab')2, biotin-labeled human SIRPα-Fc in solution, OD(450-630); curve not visible in the scan
T6 construct: also called biotin-labeled human SIRPα-Fc protein
T6 sequence (chain, as listed by the source limits assumed): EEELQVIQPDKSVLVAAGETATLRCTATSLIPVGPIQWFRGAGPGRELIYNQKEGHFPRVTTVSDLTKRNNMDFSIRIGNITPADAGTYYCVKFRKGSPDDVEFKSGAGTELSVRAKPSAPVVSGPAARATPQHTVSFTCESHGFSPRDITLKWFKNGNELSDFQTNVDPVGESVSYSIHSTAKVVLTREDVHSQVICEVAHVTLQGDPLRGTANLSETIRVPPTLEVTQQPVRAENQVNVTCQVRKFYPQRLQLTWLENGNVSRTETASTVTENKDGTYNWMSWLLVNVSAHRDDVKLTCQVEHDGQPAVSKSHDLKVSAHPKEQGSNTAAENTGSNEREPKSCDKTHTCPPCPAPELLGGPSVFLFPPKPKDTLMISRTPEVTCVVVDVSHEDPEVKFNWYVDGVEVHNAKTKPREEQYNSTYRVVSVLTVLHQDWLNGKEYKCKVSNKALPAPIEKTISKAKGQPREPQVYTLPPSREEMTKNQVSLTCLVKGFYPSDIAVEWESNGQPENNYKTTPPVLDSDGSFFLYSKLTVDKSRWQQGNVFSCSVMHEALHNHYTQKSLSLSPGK

[20] = biological target: T7, human SIRPα protein (soluble, used on 293F-CD47 cells) (human, UniProt P78324 31-370, limits assumed); test: cell based blocking FACS on 293F-CD47 cells; soluble human SIRPα protein blocked from binding cell surface human CD47, MFI; curve not visible in the scan
T7 sequence (P78324 31-370 limits assumed): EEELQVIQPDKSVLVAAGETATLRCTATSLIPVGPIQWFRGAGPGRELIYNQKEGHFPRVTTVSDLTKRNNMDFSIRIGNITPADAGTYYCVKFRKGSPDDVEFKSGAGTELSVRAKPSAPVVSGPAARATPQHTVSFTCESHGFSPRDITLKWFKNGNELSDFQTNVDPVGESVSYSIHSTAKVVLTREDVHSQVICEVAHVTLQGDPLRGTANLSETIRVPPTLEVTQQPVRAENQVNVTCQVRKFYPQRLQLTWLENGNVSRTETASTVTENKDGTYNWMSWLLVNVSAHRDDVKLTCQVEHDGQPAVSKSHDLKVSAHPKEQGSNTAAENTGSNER

[21] = biological target: T7, human SIRPα protein (soluble, used on …); test: as above; remark: listed apart in the source

T1 sequence (P78324 31-504): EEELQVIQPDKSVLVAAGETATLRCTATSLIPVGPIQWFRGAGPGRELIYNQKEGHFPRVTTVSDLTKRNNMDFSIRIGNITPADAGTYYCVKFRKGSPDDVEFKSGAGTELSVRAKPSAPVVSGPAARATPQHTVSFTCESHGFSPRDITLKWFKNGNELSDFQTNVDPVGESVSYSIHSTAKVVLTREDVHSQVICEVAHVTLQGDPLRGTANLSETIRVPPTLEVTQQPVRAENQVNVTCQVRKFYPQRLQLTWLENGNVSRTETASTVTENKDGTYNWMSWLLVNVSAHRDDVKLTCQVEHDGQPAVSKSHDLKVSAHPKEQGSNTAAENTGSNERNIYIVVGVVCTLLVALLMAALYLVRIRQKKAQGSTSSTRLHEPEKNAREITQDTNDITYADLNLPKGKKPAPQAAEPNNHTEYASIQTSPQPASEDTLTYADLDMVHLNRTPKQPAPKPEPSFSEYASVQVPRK

B1: BI-765063 (antibody, human IgG4 S228P, kappa, V domains shown)
VH: EVQLVQSGAEVKKPGESLRISCKASGYSFTSYWVHWVRQMPGKGLEWMGNIDPSDSDTHYSPSFQGHVTLSVDKSISTAYLQLSSLKASDTAMYYCVRGGTGTLAYFAYWGQGTLVTVSS
VL: DVVMTQSPLSLPVTLGQPASISCRSSQSLVHSYGNTYLYWFQQRPGQSPRLLIYRVSNRFSGVPDRFSGSGSGTDFTLKISRVEAEDVGVYYCFQGTHVPYTFGGGTKVEIKR
notes: also called BM5
EC50 [1]: 0.633 nM
EC50 [2]: 0.509 nM
EC50 [3]: ~167 nM
EC50 [4]: ~7840 nM
EC50 [5]: ~16.6 nM
EC50 [6]: 15.2 nM
EC50 [7]: ~4000 nM
EC50 [8]: 0.585 nM
EC50 [9]: 0.545 nM
EC50 [10]: 0.482 nM
EC50 [11]: 0.46 nM
IC50 [12]: 0.338 nM
Kd (human SIRPα-his protein [13]): 26.7 nM
koff (human SIRPα-his protein [13]): 0.00775 s⁻¹
kon (human SIRPα-his protein [13]): 290000 M⁻¹ s⁻¹
Kd (human SIRPβ-his protein): 30.5 nM
koff (human SIRPβ-his protein): 0.00928 s⁻¹
kon (human SIRPβ-his protein): 304000 M⁻¹ s⁻¹
EC50 [14]: 12.2 nM
EC50 [15]: ~11 nM
IC50 [16]: 1.9 nM
IC50 [17]: 1.83 nM
IC50 (human SIRPα-his protein [18]): 3.92 nM
EC50 [19]: 0.249 nM
IC50 [20]: 0.361 nM
IC50 [21]: 0.386 nM
